Measurements as given in publication PMC2881104.

Biological target: regulatory domain of OxyR (NMB0173) from Neisseria meningitidis, reduced form (N. meningitidis)
Experiment: crystal structure; selenomethionine protein, His tag removed, 9 mg/ml in 20 mM Tris pH 7.5, 200 mM NaCl, 2 mM TCEP; reservoir 20% w/v PEG 3350, 0.2 M calcium acetate; 2.4 Å; dimer in the asymmetric unit

stoichiometry N: 2
Substance: regulatory domain of OxyR (NMB0173) from Neisseria meningitidis, reduced form (domain or fragment)
